Test results taken from patent US20210079115A1 (Janssen / Centocor, published 2021).

Target: full length human PSMA on cells (LNCaP, C4-2B, LNCaP AR, 22RV1 prostate tumor cells; human tissue) (human, UniProt Q04609 1-750)
Assay: cell-based or functional assay

full length human PSMA on cells (LNCaP, C4-2B, LNCaP AR, 22RV1 prostate tumor cells; human tissue), sequence (Q04609 whole entry): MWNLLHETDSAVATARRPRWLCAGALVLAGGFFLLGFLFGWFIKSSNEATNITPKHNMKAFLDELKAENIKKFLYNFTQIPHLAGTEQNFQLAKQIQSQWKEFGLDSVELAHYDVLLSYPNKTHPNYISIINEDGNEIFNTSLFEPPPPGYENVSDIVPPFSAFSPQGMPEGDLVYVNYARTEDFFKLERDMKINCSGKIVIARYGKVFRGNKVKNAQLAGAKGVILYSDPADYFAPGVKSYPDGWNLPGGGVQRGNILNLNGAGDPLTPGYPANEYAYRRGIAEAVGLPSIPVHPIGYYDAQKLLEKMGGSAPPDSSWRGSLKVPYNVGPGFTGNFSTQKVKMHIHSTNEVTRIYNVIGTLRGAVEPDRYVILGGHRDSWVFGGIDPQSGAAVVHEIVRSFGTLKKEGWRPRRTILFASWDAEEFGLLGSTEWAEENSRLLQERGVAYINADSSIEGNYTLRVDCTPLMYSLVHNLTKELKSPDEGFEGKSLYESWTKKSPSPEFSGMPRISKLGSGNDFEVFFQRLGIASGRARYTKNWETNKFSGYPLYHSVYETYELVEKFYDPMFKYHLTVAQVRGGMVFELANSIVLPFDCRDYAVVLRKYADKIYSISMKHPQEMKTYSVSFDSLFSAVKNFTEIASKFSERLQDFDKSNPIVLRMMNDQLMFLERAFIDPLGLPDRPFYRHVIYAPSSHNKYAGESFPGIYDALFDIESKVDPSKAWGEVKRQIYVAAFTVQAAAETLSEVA

B1: PS3B27 PSMA×CD3 bispecific antibody (PSMB127 × CD3B219) (bispecific antibody, human IgG4 S228P, kappa, lambda, F234A L235A)
heavy 1: not shown
light 1: not shown
heavy 2: EVQLVESGGGLVQPGGSLRLSCAASGFTFNTYAMNWVRQAPGKGLEWVARIRSKYNNYATYYAASVKGRFTISRDDSKNSLYLQMNSLKTEDTAVYYCARHGNFGNSYVSWFAYWGQGTLVTVSSASTKGPSVFPLAPCSRSTSESTAALGCLVKDYFPEPVTVSWNSGALTSGVHTFPAVLQSSGLYSLSSVVTVPSSSLGTKTYTCNVDHKPSNTKVDKRVESKYGPPCPPCPAPEAAGGPSVFLFPPKPKDTLMISRTPEVTCVVVDVSQEDPEVQFNWYVDGVEVHNAKTKPREEQFNSTYRVVSVLTVLHQDWLNGKEYKCKVSNKGLPSSIEKTISKAKGQPREPQVYTLPPSQEEMTKNQVSLTCLVKGFYPSDIAVEWESNGQPENNYKTTPPVLDSDGSFLLYSKLTVDKSRWQEGNVFSCSVMHEALHNHYTQKSLSLSLGK
light 2: QTVVTQEPSLTVSPGGTVTLTCRSSTGAVTTSNYANWVQQKPGQAPRGLIGGTNKRAPGTPARFSGSLLGGKAALTLSGVQPEDEAEYYCALWYSNLWVFGGGTKLTVLGQPKAAPSVTLFPPSSEELQANKATLVCLISDFYPGAVTVAWKADSSPVKAGVETTTPSKQSNNKYAASSYLSLTPEQWKSHRSYSCQVTHEGSTVEKTVAPTECS
  T cell activation (CD25 expression) median EC50, C4-2B cells co-cultured with donor T cells, 48 hours: 0.06 nM
  T cell dependent cytotoxicity median EC50, C4-2B cells, E:T 3:1, 72 hours: 0.08 nM
